What was measured:
[1] = system: M2 macrophages; assay: Caspase-3/7 induction, IncuCyte, M2; type: cell-based, human; details: over 6 days, BYbe 250-2 nM, Camptothecin, Staurosporine 5 μM
Protocol: Human PBMC derived from blood leukocyte platelet-apheresis cones (NHSBT Oxford) were banked as frozen aliquots. Prior to an assay being performed, 2 vials of frozen cells, each containing 5×10^7 cells in 1 ml, were thawed in a 37° C. water bath and then added to 50 ml complete media (RPMI 1640+2 mM GlutaMAX+1% Pen/Strep, all previous supplied by Invitrogen, +10% Fetal Bovine Serum (FBS), Sigma Aldrich). Cells were spun (500 g, 5 min, at RT) and re-suspended in 30 ml complete media to wash and spun again. Cells were resuspended in 20 ml MACS buffer (PBS, pH 7.2, 0.5% bovine serum albumin (BSA), and 2 mM EDTA, Sigma Aldrich) and counted on a ChemoMetec NucleoCounter NC-3000 to determine concentration and viability. PBMCs from one donor (UCB-Cones 802) was used in this assay. Monocyte isolation was performed using the Pan Monocyte Isolation Kit (Miltenyi Biotec, cat no. 130-096-537) and LS columns (Miltenyi Biotec, cat no 130-042-401) according to manufacturer's instructions. 100 μl of cells were removed and stored on ice to check monocyte purity post isolation. Isolated cells were stained with BV421 mouse anti-human CD14 (BD Biosciences, cat no. 563743) to check for purity of monocytes using FACS. M-CSF (Sigma Aldrich, cat no. SRP3110) and GM-CSF (R&D Systems, cat no. 215-GM/CF) were prepared at 100 μg/ml. Cells were prepared in M1 media (complete media+50 ng/ml GM-CSF) or M2 media (complete media+50 ng/ml M-CSF) at a concentration of 2.5×10^5 cells/ml. 200 μl cells were plated into two Corning 96 well Black polystyrene microplates (Sigma Aldrich) and incubated at 37° C., 5% CO2. Following a 3-day incubation at 37° C., 5% CO2, the plate was spun (500 g, 5 min, RT), buffer was aspirated, the cells were washed once with PBS and then resuspended in 200 μL of M1 media or M2 media. […] The caspase dye was measured with the green laser (350 ms) and the cytotox dye was measured with a red laser (650 ms). The green dye signal was analysed using Incucyte® Zoom2016B. […]

[2] = system: Human whole blood; assay: Apoptosis of lymphocytes in whole blood; type: cell-based; details: 5 hrs
Protocol: Human whole blood (Lithium heparin tubes) was taken from two donors (HTA #051119-01 & #051119-02) at UCB Pharma Slough, UK according to approved ethical sample collection protocol.
In a Greiner 96-well non-binding microplate, Fab-X and Fab-Y combinations 6294-X/4133-Y and NegCtrl-X/4133-Y, were added to PBS to give a Fab-KD-Fab concentration of 2750 nM. Similarly, a 2750 nM stock of 4133-6294 BYbe in PBS was prepared. The microplate was incubated for 1 hr at 37° C., 5% CO2. Following the incubation, Fab-KD-Fab and BYbe reagents were then serially diluted in PBS 1 in 5, nine times to produce to form a 10-point dose curve.
5 μl of each Fab-KD-Fab or BYbe dilution was added to Nunc™ 96-Well Polypropylene DeepWell™ plates (ThermoFisher). Then 50 μl of blood was added to each well, the plate gently mixed and sealed with a plate seal that allows gas exchange. These cells were then incubated for 5 hrs at 37° C., 5% CO2. Running the assay for a short time period avoids the need to add an anti-coagulant.
Following the incubation, 950 μl of BD Phosflow BD Lyse/Fix (cat no. BD558049, FisherScientific) was added to each well and the plate incubated at 37° C., 5% CO2 for 10 minutes. The plate was then spun at 500 g for 8 min, at 4° C. The buffer was aspirated and 1 ml of FACS buffer (PBS+1% bovine serum albumin (BSA)+0.1% NaN3+2 mM EDTA, Sigma Aldrich) added to wash cells using an Integra Viaflo 96 channel pipette. The plate was spun at 500 g for 8 min, at 4° C. As before, the buffer was aspirated and 1 ml of FACS buffer added to wash cells. This was followed by a slower spin at 250 g for 10 min, at 4° C. Again, buffer was aspirated and 1 ml of FACS buffer added to wash cells.
The plate was re-spun at 500 g for 8 min, at 4° C. Buffer was aspirated leaving the cells in a minimal residual volume for cell-specific antibody staining. 20 μl of cell-specific antibody cocktail (shown in Table 7 below) was added to the wells and the plate incubated for 1 hr at 4° C.
Following the incubation with the antibody cocktail, cells were washed twice as outlined above and buffer aspirated to leave the cells in 20 μl residual buffer. 20 μl of FACS buffer was then added to samples to dilute the cells. Cells were analysed live using the Intellicyt iQue Screener PLUS. Live cell counts were extracted as metrics and graphical representations generated using Graphpad Prism version 8.1 (Graphpad). Asymmetric (five parameter) curve fitting was applied to derive maximal % cell reduction and EC50 values.

B1: 4133-6294 BYbe: anti-CD45 BYbe (Fab-scFv): 4133 Fab HC-G4S linker-6294 scFv heavy chain paired with 4133 light chain (antibody)
heavy: QEQLVESGGGLVQPEGSLTLTCTASGFSFSGNYYMCWVRQAPGKGLEWIGCLYTGSSGSTYYASWAKGRFTISKTSSTTVTLQMTSLTAADTATYFCARDLGYEIDGYGGLWGQGTLVTVSSGQPKAPSVFPLAPCCGDTPSSTVTLGCLVKGYLPEPVTVTWNSGTLTNGVRTFPSVRQSSGLYSLSSVVSVTSSSQPVTCNVAHPATNTKVDKTVAPSTCSKPGGGGSGGGGSEVQLVESGAELARPGASVKMSCKASGYTFTSYTMHWVKQRPGQCLEWIGYINPSSGYTEYNQKFKDKTTLTADKSSSTAYLQLSSLTSEDSAVYYCARVGDGFYPSWLAYWGQGTLVTVSSGGGGSGGGGSGGGGSGGGGSDIQMTQSPKFLLVSAGDRVTITCKASQSVRNDVAWYQQKPGQSPKLLIFYASKRYTGVPDRFTGSGYGTDFTFTISTVQAEDLAVYFCQQDYSSPTTFGCGTKLEIK
light: AQVLTQTPSPVSAVVGGTVSISCQASQSVYNNNNLSWYQQKPGQPPKLLIYDASKLASGVPSRFKGSGSGTQFTLTISGVQCDDAATYYCLGGYYSSGWYFAFGGGTKVVVKRTPVAPTVLIFPPAADQVATGTVTIVCVANKYFPDVTVTWEVDGTTQTTGIENSKTPQNSADCTYNLSSTLTLTSTQYNSHKEYTCKVTQGTTSVVQSFNRGDC
With B1 the “levels of Caspase-3/7” value [1] was “in-line with NegCtrl BYbe-treated and untreated macrophages”, the Max % reduction ([2]; CD4+, Donor 1, whole blood) was 50% and the Max % reduction ([2]; CD4+, Donor 2, whole blood) was 54%. The Max % reduction ([2]; Total lymphocytes, Donor 1, whole blood) was 34% and the Max % reduction ([2]; Total lymphocytes, Donor 2, whole blood) was 44%.

Reference: patent US20230374148A1, “BINDING MOLECULES THAT MULTIMERISE CD45” (UCB BIOPHARMA SRL, priority 2020, published 2023)
